The DeepSol protein solubility set

assay: soluble on expression in E. coli; label from the status in PepcDB or PDB records

| Sequence | soluble on expression in E. coli |
| --- | --- |
| IPRFGVKTEQEDVLAKELEDVNKWGLHVFRIAELSGNRPLTVIMHTIFQERDLLKTFKIPVDTLITYLMTLEDHYHADVAYHNNIHAADVVQSTHVLLSTPALEAVFTDLEILAAIFASAIHDVDHPGVSNQFLINTNSELALMYNDSSVLENHHLAVGFKLLQEENCDIFQNLTKKQRQSLRKMVIDIVLATDMSKHMNLLADLKTMVETKKVTSSGVLLLDNYSDRIQVLQNMVHCADLSNPTKPLQLYRQWTDRIMEEFFRQGDRERERGMEISPMCDKHNASVEKSQVGFIDYIVHPLWETWADLVHPDAQDILDTLEDNREWYQSTIPQSPSPAPDDPEEGRQGQTEKFQFELTLE | soluble |
| IQEHAIDLSQKSALVIDEELYLPELSLDTLKGLETLAPFGMNNKKPIFLLRDFTVKQVRTMGQNGAHLKLKVAQEQAVFDLLAFNYGSLVTEFQQAQHLELAVTLSVNRWNGNTSLQ | not soluble |
| IRRKINANVYDKVVLYAPTWRGIHGKATLDIEKLKNDLEKLADQDCHIVFRGHHMIEKLVSEQNISGITIVPSEIDTNELLGAIDILITDYSSIAFDFFVMNRPVIYYAYDIEQYNNERGLYFPLNELPGTVCFNDVELLNTLSGYLRNEIYFDASKGIDKFCKNDDGSVCGKVIEWFFF | not soluble |
| ISNHPAPEYWCSIAYFEMDVQVGETFKVPSSCPIVTVDGYVDPSGGDRFCLGQLSNVHRTEAIERARLHIGKGVQLECKGEGDVWVRCLSDHAVFVQSYYLDREAGRAPGDAVHKIYPSAYIKVFDLRQCHRQMQQQAATAQAAAAAQAAAVAGNIPGPGSVGGIAPAISLSAAAGIGVDDLRRLCILRMSFVKGWGPDYPRQSIKETPCWIEIHLHRALQLLDEVLHTMPIADPQPLD | soluble |
| IVGGRRARPHAWPFMVSLQLRGGHFCGATLIAPNFVMSAAHCVANVNVRAVRVVLGAHNLSRREPTRQVFAVQRIFENGYDPVNLLNDIVILQLNGSATINANVQVAQLPAQGRRLGNGVQCLAMGWGLLGRNRGIASVLQELNVTVVTSLCRRSNVCTLVRGRQAGVCFGDSGSPLVCNGLIHGIASFVRGGCASGLYPDAFAPVAQFVNWIDSIIQ | soluble |
| IVVYTDREVYGAVGSQVTLHCSFWSSEWVSDDISFTWRYQPEGGRDAISIFHYAKGQPYIDEVGTFKERIQWVGDPSWKDGSIVIHNLDYSDNGTFTCDVKNPPDIVGKTSQVTLYVFEKVPTR | soluble |
| KAIYNRNLGYSDGAGAVLALKKKGHQNACKIAGCELWLKIIERYSREKSFYLVGGKPEVIEETIQKLRKDFPRINIVGYRDGYLKGNDDEVLIEDIAAKKPDVVFVAMGSPKQELLMERMQRVHPNAIYQGLGGSFDVYTGRVERAPEWWIRHNLEFAYRLIKQPSRIKRQIHLVRFLFRVLTNRI | not soluble |
| KAPLDEIADDSFWSDETLVKYYVNDLYSEISVDGLQLQENRSDNSVSAQRDKYRASWFKFNYDMVSASDPQDDDVWEDYYVKVRKCNRFFERIGTSTIEESEKSRLTGEVHFLRAMFYFEMVKRYGGVILLDKVLTMEDNWEIPRSSEKECYDFILEDLKKATEMLPASYGSREKGRATKGAAYALKSRVELYDKRYEDVIKSCAEVYKLGYELVDGTTPEKYRSIWWTTNKDNKEIIFDVQYKSPDVYNNMMVCNMVTYINDKYGDRGWGGLGPTQELIDAFEMADGTPATQYSQAPADQVFDINTCGIYEGREPRFYANIVFHGSQIFFNADKGAVTVDRYLMDTPDKGDGSLTGYNVWKWIDYDNYNYPYAGAGSPDFSTNWIILRYAEIYLNDAEARLETGDVEGARKAVNMIRQRVGLPDLTESDPEKLRELIRKERRIEFAFEEQRFYDVRRWKIGPETQTTLHGVRFVSPTEFKVTKTDIRTWNDRLYLTPVPHDEIVRSSVLKQNLGY | soluble |
| KAPLRDMRFVLNEVFEVSRLWAQLPALAEVVDAETAAAILEEAGKVTAGTIAPLNRPGDEEGCQWNAGAVSTPAGFPEAYRTYAEGGWVGVGGDPAYGGMGMPKVISAQVEELVNSANLSFGLYPMLTAGACLALNAHASDELKDKYLPNMYAGIWAGSMCLTEPHAGTDLGIIRTRAEPQADGSYKISGTKIFITGGEHDLTENIIHLVLAKLPDAPAGPKGISLFLVPKVLVNADGSLGEKNSLGCGSIEHKMGIKASATCVMNFDGATGWLVGEVNKGLAAMFTMMNYERLGVGIQGLATGERSYQSAIEYARERIQSRAPTGPVAKDKAADPIIVHPDVRRMLLTMKALNEGGRAFSSYVAMQLDTAKYSEDAVTRKRAEELVALLTPVAKAFLTDMGLETTIHGQQIFGGHGFIREWGQEQLVRDCRITQIYEGTNGIQALDLVGRKVIGSGGAFSRHFTDEIKAFVASADEALGEFSKPLAAAVENLEELTAWLLDRAKGNPNEIGAASVEYLHVFGYTAYAYMWALMARTALAKQGEDDFYASKLGTARFYFARLLPRIHSLSASVRAGS | not soluble |
| KAVIDIDAATKIMCSNAKAISLNEVEKNEIISKYREITAKKSERAELKEVEPIPLDWPSDLTLPPLPESTNDYVWAGKRKELDDYPRKQLIIDGLSIVIPTYNRAKILAITLACLCNQKTIYDYEVIVADDGSKENIEEIVREFESLLNIKYVRQKDYGYQLCAVRNLGLRAAKYNYVAILDCDMAPNPLWVQSYMELLAVDDNVALIGPRKYIDTSKHTYLDFLSQKSLINEIPEIITNNQVAGKVEQNKSVDWRIEHFKNTDNLRLCNTPFRFFSGGNVAFAKKWLFRAGWFDEEFTHWGGEDNEFGYRLYREGCYFRSVEGAMAYHQEPPGKENETDRAAGKNITVQLLQQKVPYFYRKKEKIESATLKRVPLVSIYIPAYNCSKYIVRCVESALNQTITDLEVCICDDGSTDDTLRILQEHYANHPRVRFISQKNKGIGSASNTAVRLCRGFYIGQLDSDDFLEPDAVELCLDEFRKDLSLACVYTTNRNIDREGNLISNGYNWPIYSREKLTSAMICHHFRMFTARAWNLTEGFNESISNAVDYDMYLKLSEVGPFKHINKICYNRVLHGENTSIKKLDIQKENHFKVVNESLSRLGIKKYKYSPLTNLNECRKYTWEKI | soluble |
| KDCASDGTLSAVGSLETPEKKQSESSRGRKRKAENQNESSQGKSIGGRGHKISDYFEYQGGNGSSPVRGIPPAIRSPQNSHSHSTPSSSVRPNSPSPTALAFGDHPIVQPKQLSFKIIQTDLTMLKLAALESNKIQDLEKKEGRIDDLLRANCDLRRQIDEQQKLLEKYKERLNKCISMSKKLLIEKSTQEKLSSREKSMQDRLRLGHFTTVRHGASFTEQWTDGFAFQNLVKQQEWVNQQREDIERQRKLLAKRKPPTANNSQAPSTNSEPKQRKNKAVNGAENDPFVRPNLPQLLTLAEYHEQEEIFKLRLGHLKKEEAEIQAELERLERVRNLHIRELKRINNEDNSQFKDHPTLNERYLLLHLLGRGGFSEVYKAFDLYEQRYAAVKIHQLNKSWRDEKKENYHKHACREYRIHKELDHPRIVKLYDYFSLDTDTFCTVLEYCEGNDLDFYLKQHKLMSEKEARSIVMQIVNALRYLNEIKPPIIHYDLKPGNILLVDGTACGEIKITDFGLSKIMDDDSYGVDGMDLTSQGAGTYWYLPPECFVVGKEPPKISNKVDVWSVGVIFFQCLYGRKPFGHNQSQQDILQENTILKATEVQFPVKPVVSSEAKAFIRRCLAYRKEDRFDVHQLANDPYLLPHMRRSNSSGNLHMAGLTASPTPPSSSIITY | soluble |
| KDETVGVGVLSEPHARLLEIAKEEVKKQHIELRIVEFTNYVALNEAVMRGDILMNFFQHVPHMQQFNQEHNGDLVSVGNVHVEPLALYSRTYRHVSDFPAGAVIAIPNDSSNEARALRLLEAAGFIRMRAGSGLFATVEDVQQNVRNVVLQEVESALLPRVFDQVDGAVINGNYAIMAGLSARRDGLAVEPDASAYANVLVVKRGNEADARVQAVLRALCGGRVRTYLKERYKGGEVAPAL | soluble |
| KDFVSDVLPTIAECYHHLGQEDELVEFLRACIDKKAGVSAELMLAQLVAHHESVGAAQELLTKQLLKNPTMKGFYRLIDYHIAEAEDGRAKDSLSTLQAMVGEQLKVKPHYRCRKCGFSTHSLYWHCPSCKGWGTIKPIRGLDGE | not soluble |
| KDIGSLTLALEQLKEKLRLKGYFDEENKLPKPHFPKRVAVITSQNSAAWADMKKIASKRWPMCELVCINTLMQGEGCVQSVVESIVYADSFHDTK | not soluble |
| KDRSIIAMGAWLEVLSEEKDGNRLARHHEHGKIWKKPTRHEDIADFFPFGNPIHNNTMIMRRSVIDGGLRYNTERDWAEDYQFWYDVSKLGRLAYYPEALVKYRLHANQVSSKYSIRQHEIAQGIQKTARNDFLQSMGFKTRFDSLEYRQIKAVAYELLEKHLPEEDFERARRFLYQCFKRTDTLPAGAWLDFAADGRMRRLFTLRQYFGILHRLLKNR | not soluble |
| KEDYDRRSGKVSEPAPQATEEEDKVEVEPEDNGISSVADMSDGKESIAPKGHAVKPDEGAHSAKKTYKIQILSSTTKLKNGDKRLKGYKVVIEQRGGRFFYLTGAVSSEDEARHLRKKVRKSFPDAYIVVYEAGKRVREIY | not soluble |
| KEEELVSDEEIGVKISLTGLKGGHSGVDIHLGRANANKLMFRFLKEAVGFYGARLAWVEGGSLRNAIPREAFAVITIQEEEAEAVWELVSDYQDLFRKEFSGIEENIKFEASRIECPRMIIPEEIQDCLINAVEACVNGPQSMLQDFPGTVESSSNLALITAKEGSISVRFLVRSSSESHKMWVASAIESVFSLAGARVEFDASYNGWQPNIQSHILEVMSKVFEEYYGQKPEVQVMHAGLECGIIQGVMPDMDMISVGPELQSPHSPDERIHIESVARTWEVLVKVLERV | not soluble |
| KEENNFINLYTVKNPLKCKIVDKINLVRPNSPNEVYHLEINHNGLFKYLEGHTCGIIPYYNELDNNPNNQINKDHNIINTTNHTNHNNIALSHIKKQRCARLYSISSSNNMENLSVAIKIHKYEQTENAPNITNYGYCSGFIKNLKINDDIYLTGAHGYFNLPNDAIQKNTNFIFIATGTGISPYISFLKKLFAYDKNNLYNRNSNYTGYITIYYGVYNEDSILYLNELEYFQKMYPNNINIHYVFSYKQNSDATSFYVQDEIYKRKTEFLNLFNNYKCELYICGLKSIRYKVMDILKSHDQFDEKKKKRVHVEVY | soluble |
| KEKFNYYIGANIAADKNEVTKITLGGQNLMISGYSAHGAGGRGINMFAEGHPMSYFNLIETDGLFRSAEEIANYKNKDGELIQPAAQVGDVRYKDWNGDGKINTDDQHDVGSPFPDFTFGIRLGGEWNNFDFNLFFDGMVGNKIYNYPRYRLESGNFNGNMSTVLANSWRPDNQNTDIPRFSKTDGADNKWAYTDRWLEDGSYIRLKTLDIGYTLPKVLTKKIKLENVRIYTSMENLFTLTKYSGYTPDLGESSVAGVAYNVFSRGIDQGRYPLPRTISFGIQVNL | not soluble |
| KELKDSYVEYTLLYDMIANRIGIDEVVAENGTLRLMKNQVWAYDSLPHMLIAGGTGGGKTYFLLTIIEALLKSDAELFILDPKNADLADLGTVMPHVYSQKEEISACVEDFYERMIARSKAMKEMPNYKPGENYAYLGLPPNFLIFDEYVAYMGANRFPTS | not soluble |
| KEMKYVVDTSVVISGRVTEMLESGEIKGTIIVPEAVMAELEAQANFGKMTGFQGLSEIEKLTKLAKDKGFEVIFAGERPKLEHIRLAKGGEIDNLIREVAAEFDAVLVTSDRVQHLVARAKGIETIYVRPRVVRPENTRIMSFFTP | not soluble |
| KGGWFGKHRGQGGSNPKFENIAEGLRALLARSHVERTTDEGTWVAGVFVYGGSKTSLYNLRRGTALAIPQCRLTPLSRLPFGMAPGPGPQPGPLRESIVCYFMVFLQTHIFAEVLKDAIKDLVMTKPAPTCNIRVTVCSFDDGVDLP | soluble |
